According to article doi:10.1101/2024.10.02.616235, “Mechanism of DNA entrapment by the MukBEF SMC complex and its inhibition by a viral DNA mimic” (bioRxiv, 2024):

B1: T7 gp5.9, purified from insect cells (natural protein, bacteriophage T7)
chain: MSRDLVTIPRDVWNDIQGYIDSLERENDSLKNQLMEADEYVAELEEKLNGTS
notes: bacteriophage T7 gp5.9; histidine tag removed with 3C protease; Used as 'gp5.9 dimers' in SEC; source: Hi5 insect cells, purified (Talon, 3C cleavage, HisTrap, MonoQ)
B2: P. thracensis MukE as subunit of wild-type MukBEF (natural protein, Photorhabdus thracensis)
chain: MSSTHIEQFMPVKLAQALANSLFPELDSQLRAGRHIGIDDLDNHAFLMDFQEQLEEFYARYNVELIRAPEGFFYLRPRSTTLIPRSVLSELDMMVGKILCYLYLSPERLANQGIFTSQELYEELISLADEGKLMKFVNQRSSGSDLDKQKLQEKVRTTLNRLRRLGMVYFLPNNNNKFTITEAVFRFGADVRSGDDPREIQLRMIRDGEAMPVEGSLSLDDSENDETPDNSAEGAGDEQP
notes: Photorhabdus thracensis MukE; the MukE chain of m14; source: E. coli BL21-Gold(DE3), co-expressed as MukBEF from pFB403, purified

Experiments:
[1] = target: the molecule itself; experiment: cryo-EM structure; E. coli MukEF 1 μM mixed with 4 μM gp5.9 in 20 mM Tris, 200 mM NaCl, 0.5 mM TCEP, 0.05 % β-octyl glucoside, pH 7.4, on ice
[2] = target: the molecule itself; experiment: cryo-EM structure; wild-type P. thracensis MukBEF dimers 150 nM with nicked plasmid pFB526 and 5 mM ATP, 10 mM MgCl2, pH 7.0, optionally with Na3VO4 or BeSO4/NaF; datasets pooled

Protein	stoichiometry N [1]	stoichiometry N [2]
B1	2	–
B2	–	2
